In article PMC8233815:
Read-outs that look alike come from different tables or passages of the source.

T1: Elk1 ETS domain (Homo sapiens, UniProt P19419 1-93)
T1 sequence: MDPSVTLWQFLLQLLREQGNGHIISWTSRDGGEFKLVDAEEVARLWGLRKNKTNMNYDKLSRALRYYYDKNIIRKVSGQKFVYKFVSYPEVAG


Experiments:
Elk1 ETS domain [1] = target: T1, Elk1 ETS domain; assay: SPR
Elk1 ETS domain [2] = target: T1, Elk1 ETS domain; assay: SPR; remark: listed apart in the source

| Binder | binding result (Elk1 ETS domain [1]) | binding result (Elk1 ETS domain [2]) |
| --- | --- | --- |
| E74 (dsDNA) DNA 1: CTGAATAACCGGAAGTAACTCATC DNA 2: GATGAGTTACTTCCGGTTATTCAG | binds | – |
| SD1 (scrambled nonspecific) (dsDNA) DNA 1: CGCAAAAGCTGAGATGGCGTGCC DNA 2: GGCACGCCATCTCAGCTTTTGCG | – | no binding |
